Results on 16 variants are retold here after the supplement of paper PMC7125110.

± gives the standard error. For some assays here: Variants at the floor of the assay were thinned out.

First the molecules themselves.
B1: glmS ribozyme (parent)
chain: AUAAAAGCGCCAGAACUACAGAAAUGUAGUUGACGAGGAGGAGGUUUAUCGAAUUUUCGGCGGAUGCCUCCAAA

What all share (conditions): with glucosamine-6-phosphate
Data set [1] covers variants of B1. The data set is described as follows: kcat; higher = faster cleavage; RNA array. In a few lines: (§1)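 kobs was derived by fitting per-tile medians to one- or two-exponential decays after normalising signals to baseline and to non-cleaving reference variants. Those signals came from barcoded ribozyme variants transcribed in situ by E. coli RNA polymerase on sequenced MiSeq chips, followed through a hybridised Cy3 probe at 37 °C and imaged over ~14 h. Glucosamine-6-phosphate (40 μM to 10 mM) in HEPES/KCl/Mg(OAc)2 buffer was flowed in. Weighted Michaelis–Menten fits across concentrations then gave kcat and KM.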

Data set [2] covers variants of B1. The data set is described as follows: KM; higher = weaker cofactor use; RNA array. In a few lines: as §1
Data set [3] covers variants of B1. The data set is described as follows: self-cleavage kobs at 640 uM GlcN6P; higher = faster cleavage; RNA array. In a few lines: as §1
In data set [4] the parent is B1. Briefly: self-cleavage kobs at 2500 uM GlcN6P; higher = faster cleavage; RNA array. In short, it runs like this: as §1
In data set [5] the parent is B1. The data set is described as follows: self-cleavage kobs at 10000 uM GlcN6P; higher = faster cleavage; RNA array. In short, it runs like this: as §1
In data set [6] the parent is B1. The data set is described as follows: self-cleavage kobs at 40 uM GlcN6P; higher = faster cleavage; RNA array. In short, it runs like this: as §1
Variants of B1 are the subject of data set [7]. Briefly: self-cleavage kobs at 160 uM GlcN6P; higher = faster cleavage; RNA array. In short, it runs like this: as §1

In the case of U54C C58A, the kcat with glucosamine-6-phosphate [1] is 0.000427 ± 0.0001 s⁻¹. Moreover, the KM in the data set with glucosamine-6-phosphate [2] was 3720 ± 1300 µM. For the same variant, the “self-cleavage kobs at 640 uM GlcN6P” value in the data set with glucosamine-6-phosphate [3] amounted to 6.93e-05 ± 1.1e-05 s⁻¹. The “self-cleavage kobs at 2500 uM GlcN6P” value with glucosamine-6-phosphate [4] came to 0.000153 ± 2.3e-05 s⁻¹. The “self-cleavage kobs at 10000 uM GlcN6P” value in the data set with glucosamine-6-phosphate [5] turned out to be 0.000361 ± 7.7e-05 s⁻¹.

As to C50A U56G, the kcat with glucosamine-6-phosphate [1] is less than 1e-05 s⁻¹.

As for G9U C71U, the kcat with glucosamine-6-phosphate [1] is less than 1e-05 s⁻¹. For the same variant, in the data set with glucosamine-6-phosphate [6], the “self-cleavage kobs at 40 uM GlcN6P” value is less than 1e-05 s⁻¹. Further, the “self-cleavage kobs at 160 uM GlcN6P” value in the data set with glucosamine-6-phosphate [7] was less than 1e-05 s⁻¹. In addition, the “self-cleavage kobs at 640 uM GlcN6P” value with glucosamine-6-phosphate [3] is less than 1e-05 s⁻¹. In addition, the “self-cleavage kobs at 10000 uM GlcN6P” value in the data set with glucosamine-6-phosphate [5] was less than 1e-05 s⁻¹.

For C61G G62U C68G, the kcat with glucosamine-6-phosphate [1] came out at 1.21e-05 ± 3.9e-06 s⁻¹.

For the variant G29C A42G, the kcat with glucosamine-6-phosphate [1] amounted to 0.00279 ± 0.00031 s⁻¹. The KM in the data set with glucosamine-6-phosphate [2] was determined as 1790 ± 300 µM. In addition, the “self-cleavage kobs at 40 uM GlcN6P” value in the data set with glucosamine-6-phosphate [6] was determined as 6.95e-05 ± 1e-05 s⁻¹. Also, the “self-cleavage kobs at 160 uM GlcN6P” value with glucosamine-6-phosphate [7] worked out at 0.000209 ± 4e-05 s⁻¹. Moreover, the “self-cleavage kobs at 640 uM GlcN6P” value with glucosamine-6-phosphate [3] was 0.000724 ± 0.00013 s⁻¹. In addition, in the data set with glucosamine-6-phosphate [4], the “self-cleavage kobs at 2500 uM GlcN6P” value worked out at 0.00144 ± 0.00025 s⁻¹. Moreover, the “self-cleavage kobs at 10000 uM GlcN6P” value with glucosamine-6-phosphate [5] was 0.00253 ± 0.00032 s⁻¹.

G13U G40C: the kcat with glucosamine-6-phosphate [1] was 8.27e-05 ± 6.4e-06 s⁻¹. The KM with glucosamine-6-phosphate [2] came to 994 ± 460 µM. In addition, the “self-cleavage kobs at 2500 uM GlcN6P” value with glucosamine-6-phosphate [4] turned out to be 4.94e-05 ± 1.9e-05 s⁻¹. Besides, the “self-cleavage kobs at 10000 uM GlcN6P” value with glucosamine-6-phosphate [5] is 7.64e-05 ± 9.8e-06 s⁻¹.

On to G13A U30A, for which the kcat in the data set with glucosamine-6-phosphate [1] came out at 0.000292 ± 4.6e-05 s⁻¹. Also, in the data set with glucosamine-6-phosphate [2], the KM came to 3630 ± 960 µM. The “self-cleavage kobs at 160 uM GlcN6P” value in the data set with glucosamine-6-phosphate [7] was less than 1e-05 s⁻¹. The “self-cleavage kobs at 640 uM GlcN6P” value with glucosamine-6-phosphate [3] came out at 3.94e-05 ± 1.3e-05 s⁻¹. For the same variant, the “self-cleavage kobs at 2500 uM GlcN6P” value with glucosamine-6-phosphate [4] turned out to be 0.000128 ± 2.3e-05 s⁻¹. Besides, the “self-cleavage kobs at 10000 uM GlcN6P” value with glucosamine-6-phosphate [5] worked out at 0.000202 ± 5.4e-05 s⁻¹.

Consider A14C, for which the kcat with glucosamine-6-phosphate [1] worked out at 0.0129 ± 0.0023 s⁻¹. In addition, the KM in the data set with glucosamine-6-phosphate [2] was determined as 3460 ± 740 µM. Also, the “self-cleavage kobs at 40 uM GlcN6P” value with glucosamine-6-phosphate [6] stood at 0.000163 ± 2.7e-06 s⁻¹. In the data set with glucosamine-6-phosphate [7], the “self-cleavage kobs at 160 uM GlcN6P” value was 0.000466 ± 1.5e-05 s⁻¹. Moreover, the “self-cleavage kobs at 640 uM GlcN6P” value with glucosamine-6-phosphate [3] worked out at 0.00185 ± 6.7e-05 s⁻¹. In the data set with glucosamine-6-phosphate [4], the “self-cleavage kobs at 2500 uM GlcN6P” value worked out at 0.00541 ± 0.00017 s⁻¹. Besides, the “self-cleavage kobs at 10000 uM GlcN6P” value with glucosamine-6-phosphate [5] turned out to be 0.00971 ± 0.00024 s⁻¹.

For the variant G9A G38U, the kcat with glucosamine-6-phosphate [1] is less than 1e-05 s⁻¹. Moreover, the “self-cleavage kobs at 640 uM GlcN6P” value in the data set with glucosamine-6-phosphate [3] was less than 1e-05 s⁻¹.

In the case of A48G C71G, the kcat with glucosamine-6-phosphate [1] turned out to be 1.72e-05 ± 7.5e-06 s⁻¹.

In the case of C16U U54G, in the data set with glucosamine-6-phosphate [1], the turnover number (kcat) amounted to 0.0201 ± 0.0063 s⁻¹. Further, the KM with glucosamine-6-phosphate [2] came out at 1720 ± 730 µM. The “self-cleavage kobs at 40 uM GlcN6P” value in the data set with glucosamine-6-phosphate [6] amounted to 0.000682 ± 0.00011 s⁻¹. In addition, the “self-cleavage kobs at 160 uM GlcN6P” value with glucosamine-6-phosphate [7] is 0.00138 ± 0.00023 s⁻¹. The “self-cleavage kobs at 640 uM GlcN6P” value in the data set with glucosamine-6-phosphate [3] is 0.00575 ± 0.00092 s⁻¹. In the data set with glucosamine-6-phosphate [4], the “self-cleavage kobs at 2500 uM GlcN6P” value is 0.0115 ± 0.0019 s⁻¹. In addition, the “self-cleavage kobs at 10000 uM GlcN6P” value with glucosamine-6-phosphate [5] was 0.0185 ± 0.0042 s⁻¹.

Turning to U56C G66U, the kcat in the data set with glucosamine-6-phosphate [1] was determined as 0.000242 ± 4e-05 s⁻¹. The KM with glucosamine-6-phosphate [2] amounted to 1500 ± 650 µM. For the same variant, the “self-cleavage kobs at 640 uM GlcN6P” value with glucosamine-6-phosphate [3] was found to be 8.87e-05 ± 2e-05 s⁻¹. In addition, in the data set with glucosamine-6-phosphate [4], the “self-cleavage kobs at 2500 uM GlcN6P” value worked out at 0.000133 ± 2e-05 s⁻¹. In the data set with glucosamine-6-phosphate [5], the “self-cleavage kobs at 10000 uM GlcN6P” value is 0.000231 ± 3.4e-05 s⁻¹.

As for C11A A15C C70A, in the data set with glucosamine-6-phosphate [1], the kcat was found to be 4.15e-05 ± 2.7e-06 s⁻¹. In the data set with glucosamine-6-phosphate [5], the “self-cleavage kobs at 10000 uM GlcN6P” value was 4.27e-05 ± 1.9e-05 s⁻¹.

With A12C U56A, in the data set with glucosamine-6-phosphate [1], the kcat worked out at 0.0197 ± 0.004 s⁻¹. Moreover, the KM with glucosamine-6-phosphate [2] was 4980 ± 1400 µM. Also, the “self-cleavage kobs at 40 uM GlcN6P” value with glucosamine-6-phosphate [6] amounted to 0.00021 ± 2.5e-05 s⁻¹. Moreover, the “self-cleavage kobs at 160 uM GlcN6P” value in the data set with glucosamine-6-phosphate [7] turned out to be 0.000528 ± 7.5e-05 s⁻¹. Moreover, the “self-cleavage kobs at 640 uM GlcN6P” value in the data set with glucosamine-6-phosphate [3] stood at 0.00217 ± 0.00031 s⁻¹. Further, the “self-cleavage kobs at 2500 uM GlcN6P” value with glucosamine-6-phosphate [4] came to 0.0059 ± 0.00083 s⁻¹. The “self-cleavage kobs at 10000 uM GlcN6P” value in the data set with glucosamine-6-phosphate [5] is 0.0135 ± 0.0011 s⁻¹.

On to A64G C71A, for which the kcat with glucosamine-6-phosphate [1] is 0.000799 ± 8.2e-05 s⁻¹. In the data set with glucosamine-6-phosphate [2], the KM stood at 1410 ± 280 µM. Further, the “self-cleavage kobs at 160 uM GlcN6P” value with glucosamine-6-phosphate [7] came out at 7.29e-05 ± 1.4e-05 s⁻¹. Moreover, the “self-cleavage kobs at 640 uM GlcN6P” value in the data set with glucosamine-6-phosphate [3] stood at 0.000265 ± 3.8e-05 s⁻¹. The “self-cleavage kobs at 2500 uM GlcN6P” value with glucosamine-6-phosphate [4] turned out to be 0.00059 ± 7.4e-05 s⁻¹. In the data set with glucosamine-6-phosphate [5], the “self-cleavage kobs at 10000 uM GlcN6P” value was 0.000652 ± 7.6e-05 s⁻¹.

Turning to A14C C71G, the kcat with glucosamine-6-phosphate [1] stood at 0.000465 ± 0.00016 s⁻¹. For the same variant, in the data set with glucosamine-6-phosphate [7], the “self-cleavage kobs at 160 uM GlcN6P” value amounted to 3.11e-05 ± 1e-05 s⁻¹. Moreover, the “self-cleavage kobs at 640 uM GlcN6P” value in the data set with glucosamine-6-phosphate [3] came to 0.000228 ± 7.6e-05 s⁻¹. Further, in the data set with glucosamine-6-phosphate [4], the “self-cleavage kobs at 2500 uM GlcN6P” value amounted to 0.00017 ± 2.9e-05 s⁻¹. Further, in the data set with glucosamine-6-phosphate [5], the “self-cleavage kobs at 10000 uM GlcN6P” value stood at 0.00038 ± 4.5e-05 s⁻¹.
